{"source": "patent US20210115138A1", "key": {"[1]": {"target": "human LAG-3 protein (Example 3) (human) (UniProt P18627)", "sequence (P18627 23-450 limits assumed)": "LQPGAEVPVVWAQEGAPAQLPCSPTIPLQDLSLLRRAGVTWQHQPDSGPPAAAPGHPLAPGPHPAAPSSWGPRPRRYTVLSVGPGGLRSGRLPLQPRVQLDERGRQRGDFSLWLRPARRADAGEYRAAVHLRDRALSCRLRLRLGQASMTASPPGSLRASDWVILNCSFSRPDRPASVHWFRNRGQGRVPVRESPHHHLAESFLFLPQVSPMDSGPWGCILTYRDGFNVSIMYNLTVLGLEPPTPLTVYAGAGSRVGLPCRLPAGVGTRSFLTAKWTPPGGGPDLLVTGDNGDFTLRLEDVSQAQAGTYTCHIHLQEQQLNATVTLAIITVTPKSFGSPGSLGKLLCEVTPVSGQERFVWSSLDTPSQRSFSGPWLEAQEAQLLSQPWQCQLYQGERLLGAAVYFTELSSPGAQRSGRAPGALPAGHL", "assay": "SPR"}, "[2]": {"target": "human LAG-3 on cells (human) (UniProt P18627)", "sequence (P18627 23-525)": "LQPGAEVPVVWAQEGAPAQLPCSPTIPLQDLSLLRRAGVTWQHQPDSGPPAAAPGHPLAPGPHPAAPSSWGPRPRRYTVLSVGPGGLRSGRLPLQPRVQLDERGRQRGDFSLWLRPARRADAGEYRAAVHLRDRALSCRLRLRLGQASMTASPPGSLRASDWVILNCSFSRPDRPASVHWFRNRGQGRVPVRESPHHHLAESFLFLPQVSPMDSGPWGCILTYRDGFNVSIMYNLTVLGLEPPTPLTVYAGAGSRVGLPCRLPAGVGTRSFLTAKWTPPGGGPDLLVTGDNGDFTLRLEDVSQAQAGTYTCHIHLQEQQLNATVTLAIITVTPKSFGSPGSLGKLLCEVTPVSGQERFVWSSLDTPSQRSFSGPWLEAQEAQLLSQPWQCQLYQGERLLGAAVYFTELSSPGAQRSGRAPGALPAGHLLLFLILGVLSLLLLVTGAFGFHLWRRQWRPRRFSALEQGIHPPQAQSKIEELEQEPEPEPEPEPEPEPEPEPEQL", "assay": "FACS affinity test on cell surface human LAG-3"}, "[3]": {"target": "human LAG-3 protein (Example 3) (human) (UniProt P18627)", "assay": "ELISA; blocking of LAG-3 protein binding to LSECtin"}, "[4]": {"target": "human LAG-3 protein (Example 3) (human) (UniProt P18627)", "assay": "ELISA; blocking of LAG-3 protein binding to Galectin-3"}, "[5]": {"target": "human LAG-3 on cells (human) (UniProt P18627)", "assay": "FACS on cell surface human LAG-3"}, "[6]": {"target": "human LAG-3 protein (Example 3) (human) (UniProt P18627)", "assay": "FACS; blocking of LAG-3 protein binding to MHC-II on Raji cells"}}, "data": [{"binder": "BMK7 (antibody, INN chains, looked up, V domains shown) VH: QVQLVESGGGVVQPGRSLRLSCVASGFTFSSYGMHWVRQAPGKGLEWVAIIWYDGSNKYYADSVKGRFTISRDNSKNTQYLQMNSLRAEDTAVYYCASVATSGDFDYYGMDVWGQGTTVTVSS VL: EIVLTQSPATLSLSPGERTTLSCRASQRISTYLAWYQQKPGQAPRLLIYDASKRATGIPARFSGSGSGTGFTLTISSLEPEDFAVYYCQQRSNWPLTFGGGTKVEIK", "values": [{"measurement": "Kd", "setting": "[1]", "result": 0.497, "unit": "nM"}, {"measurement": "Kd", "setting": "[2]", "result": 0.58, "unit": "nM"}, {"measurement": "EC50", "setting": "[3]", "result": 0.59, "unit": "nM"}, {"measurement": "EC50", "setting": "[4]", "result": 0.79, "unit": "nM"}, {"measurement": "EC50", "setting": "[5]", "result": 0.61, "unit": "nM"}, {"measurement": "EC50", "setting": "[6]", "result": 1.25, "unit": "nM"}]}]}
